Reference: patent US20220048967A1 (published 2022)
Numbered stars: 1 amine (or outer) side, 2 acyl side, 3 side chain; on linkers, the order of the positions; unused ones are H or OH. Square brackets hold non-standard residues; d marks the D form. Side chains are listed from the residue outwards. Ends that are not written are not given here. * marks the point of attachment. C20 diacid = O=C(O)CCCCCCCCCCCCCCCCCCC(=O)*; γGlu = O=C(O)[C@H](CCC(=O)[*:2])N[*:1]; AEEA = NCCOCCOCC(=O)O; Aib = CC(C)(N)C(=O)O

Columns and labels:
human GLP-1 receptor = human GLP-1 receptor (human, UniProt P43220 24-463); experiment: cell-based or functional assay
human GIP receptor = biological target: T1, human GIP receptor (human, UniProt P48546 22-466); experiment: cell-based or functional assay
T1 sequence (looked up): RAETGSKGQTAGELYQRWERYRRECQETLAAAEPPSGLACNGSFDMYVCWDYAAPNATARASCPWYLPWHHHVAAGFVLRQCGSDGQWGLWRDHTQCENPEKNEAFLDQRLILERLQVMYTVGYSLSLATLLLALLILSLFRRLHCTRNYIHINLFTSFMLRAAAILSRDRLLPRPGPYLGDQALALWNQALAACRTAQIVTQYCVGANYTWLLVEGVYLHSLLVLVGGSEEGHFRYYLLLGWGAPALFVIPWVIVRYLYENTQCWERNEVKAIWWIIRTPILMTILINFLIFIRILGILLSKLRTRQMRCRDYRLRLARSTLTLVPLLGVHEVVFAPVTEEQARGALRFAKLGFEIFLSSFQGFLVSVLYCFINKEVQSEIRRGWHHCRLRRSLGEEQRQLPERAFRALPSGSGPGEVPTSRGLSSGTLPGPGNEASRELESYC

B1: Example 30 (peptide)
peptide: Y[Aib]EGTFTSDYSILLDKIK([AEEA-AEEA-γGlu-C20 diacid])Q[Aib]AFIEYLIEGGPSSGAPPPS-NH2
modifications: N-terminus assumed
SMILES: CC[C@H](C)[C@H](NC(=O)[C@H](CC(C)C)NC(=O)[C@H](Cc1ccc(O)cc1)NC(=O)[C@H](CCC(=O)O)NC(=O)[C@@H](NC(=O)[C@H](Cc1ccccc1)NC(=O)[C@H](C)NC(=O)C(C)(C)NC(=O)[C@H](CCC(N)=O)NC(=O)[C@H](CCCCNC(=O)COCCOCCNC(=O)COCCOCCNC(=O)CC[C@H](NC(=O)CCCCCCCCCCCCCCCCCCC(=O)O)C(=O)O)NC(=O)[C@@H](NC(=O)[C@H](CCCCN)NC(=O)[C@H](CC(=O)O)NC(=O)[C@H](CC(C)C)NC(=O)[C@H](CC(C)C)NC(=O)[C@@H](NC(=O)[C@H](CO)NC(=O)[C@H](Cc1ccc(O)cc1)NC(=O)[C@H](CC(=O)O)NC(=O)[C@H](CO)NC(=O)[C@@H](NC(=O)[C@H](Cc1ccccc1)NC(=O)[C@@H](NC(=O)CNC(=O)[C@H](CCC(=O)O)NC(=O)C(C)(C)NC(=O)[C@@H](N)Cc1ccc(O)cc1)[C@@H](C)O)[C@@H](C)O)[C@@H](C)CC)[C@@H](C)CC)[C@@H](C)CC)C(=O)N[C@@H](CCC(=O)O)C(=O)NCC(=O)NCC(=O)N1CCC[C@H]1C(=O)N[C@@H](CO)C(=O)N[C@@H](CO)C(=O)NCC(=O)N[C@@H](C)C(=O)N1CCC[C@H]1C(=O)N1CCC[C@H]1C(=O)N1CCC[C@H]1C(=O)N[C@@H](CO)C(N)=O
- hGLP1R cAMP EC50 ratio (human GLP-1 receptor): 0.0331
- hGLP1R cAMP Rel EC50 (human GLP-1 receptor): 1.84 nM
- hGIPR cAMP EC50 ratio (human GIP receptor): 1.5
- hGIPR cAMP Rel EC50 (human GIP receptor): 0.114 nM

B2: Example 25 (peptide)
peptide: Y[Aib]EGTFTSDYSK([AEEA-AEEA-γGlu-C20 diacid])LLDKIAQ[Aib]AFIEYLIEGGPSSGAPPPS-NH2
modifications: N-terminus assumed
SMILES: CC[C@H](C)[C@H](NC(=O)[C@H](CCCCN)NC(=O)[C@H](CC(=O)O)NC(=O)[C@H](CC(C)C)NC(=O)[C@H](CC(C)C)NC(=O)[C@H](CCCCNC(=O)COCCOCCNC(=O)COCCOCCNC(=O)CC[C@H](NC(=O)CCCCCCCCCCCCCCCCCCC(=O)O)C(=O)O)NC(=O)[C@H](CO)NC(=O)[C@H](Cc1ccc(O)cc1)NC(=O)[C@H](CC(=O)O)NC(=O)[C@H](CO)NC(=O)[C@@H](NC(=O)[C@H](Cc1ccccc1)NC(=O)[C@@H](NC(=O)CNC(=O)[C@H](CCC(=O)O)NC(=O)C(C)(C)NC(=O)[C@@H](N)Cc1ccc(O)cc1)[C@@H](C)O)[C@@H](C)O)C(=O)N[C@@H](C)C(=O)N[C@@H](CCC(N)=O)C(=O)NC(C)(C)C(=O)N[C@@H](C)C(=O)N[C@@H](Cc1ccccc1)C(=O)N[C@H](C(=O)N[C@@H](CCC(=O)O)C(=O)N[C@@H](Cc1ccc(O)cc1)C(=O)N[C@@H](CC(C)C)C(=O)N[C@H](C(=O)N[C@@H](CCC(=O)O)C(=O)NCC(=O)NCC(=O)N1CCC[C@H]1C(=O)N[C@@H](CO)C(=O)N[C@@H](CO)C(=O)NCC(=O)N[C@@H](C)C(=O)N1CCC[C@H]1C(=O)N1CCC[C@H]1C(=O)N1CCC[C@H]1C(=O)N[C@@H](CO)C(N)=O)[C@@H](C)CC)[C@@H](C)CC
- hGLP1R cAMP EC50 ratio (human GLP-1 receptor): 0.197
- hGLP1R cAMP Rel EC50 (human GLP-1 receptor): 0.356 nM
- hGIPR cAMP EC50 ratio (human GIP receptor): 0.636
- hGIPR cAMP Rel EC50 (human GIP receptor): 0.23 nM

B3: Example 26 (peptide)
peptide: Y[Aib]EGTFTSDYSIK([AEEA-AEEA-γGlu-C20 diacid])LDKIAQ[Aib]AFIEYLIEGGPSSGAPPPS-NH2
modifications: N-terminus assumed
SMILES: CC[C@H](C)[C@H](NC(=O)[C@H](CCCCN)NC(=O)[C@H](CC(=O)O)NC(=O)[C@H](CC(C)C)NC(=O)[C@H](CCCCNC(=O)COCCOCCNC(=O)COCCOCCNC(=O)CC[C@H](NC(=O)CCCCCCCCCCCCCCCCCCC(=O)O)C(=O)O)NC(=O)[C@@H](NC(=O)[C@H](CO)NC(=O)[C@H](Cc1ccc(O)cc1)NC(=O)[C@H](CC(=O)O)NC(=O)[C@H](CO)NC(=O)[C@@H](NC(=O)[C@H](Cc1ccccc1)NC(=O)[C@@H](NC(=O)CNC(=O)[C@H](CCC(=O)O)NC(=O)C(C)(C)NC(=O)[C@@H](N)Cc1ccc(O)cc1)[C@@H](C)O)[C@@H](C)O)[C@@H](C)CC)C(=O)N[C@@H](C)C(=O)N[C@@H](CCC(N)=O)C(=O)NC(C)(C)C(=O)N[C@@H](C)C(=O)N[C@@H](Cc1ccccc1)C(=O)N[C@H](C(=O)N[C@@H](CCC(=O)O)C(=O)N[C@@H](Cc1ccc(O)cc1)C(=O)N[C@@H](CC(C)C)C(=O)N[C@H](C(=O)N[C@@H](CCC(=O)O)C(=O)NCC(=O)NCC(=O)N1CCC[C@H]1C(=O)N[C@@H](CO)C(=O)N[C@@H](CO)C(=O)NCC(=O)N[C@@H](C)C(=O)N1CCC[C@H]1C(=O)N1CCC[C@H]1C(=O)N1CCC[C@H]1C(=O)N[C@@H](CO)C(N)=O)[C@@H](C)CC)[C@@H](C)CC
- hGLP1R cAMP EC50 ratio (human GLP-1 receptor): 0.238
- hGLP1R cAMP Rel EC50 (human GLP-1 receptor): 0.293 nM
- hGIPR cAMP EC50 ratio (human GIP receptor): 0.585
- hGIPR cAMP Rel EC50 (human GIP receptor): 0.251 nM

B4: Example 29 (peptide)
peptide: Y[Aib]EGTFTSDYSILLDK([AEEA-AEEA-γGlu-C20 diacid])IAQ[Aib]AFIEYLIEGGPSSGAPPPS-NH2
modifications: N-terminus assumed
SMILES: CC[C@H](C)[C@H](NC(=O)[C@H](CCCCNC(=O)COCCOCCNC(=O)COCCOCCNC(=O)CC[C@H](NC(=O)CCCCCCCCCCCCCCCCCCC(=O)O)C(=O)O)NC(=O)[C@H](CC(=O)O)NC(=O)[C@H](CC(C)C)NC(=O)[C@H](CC(C)C)NC(=O)[C@@H](NC(=O)[C@H](CO)NC(=O)[C@H](Cc1ccc(O)cc1)NC(=O)[C@H](CC(=O)O)NC(=O)[C@H](CO)NC(=O)[C@@H](NC(=O)[C@H](Cc1ccccc1)NC(=O)[C@@H](NC(=O)CNC(=O)[C@H](CCC(=O)O)NC(=O)C(C)(C)NC(=O)[C@@H](N)Cc1ccc(O)cc1)[C@@H](C)O)[C@@H](C)O)[C@@H](C)CC)C(=O)N[C@@H](C)C(=O)N[C@@H](CCC(N)=O)C(=O)NC(C)(C)C(=O)N[C@@H](C)C(=O)N[C@@H](Cc1ccccc1)C(=O)N[C@H](C(=O)N[C@@H](CCC(=O)O)C(=O)N[C@@H](Cc1ccc(O)cc1)C(=O)N[C@@H](CC(C)C)C(=O)N[C@H](C(=O)N[C@@H](CCC(=O)O)C(=O)NCC(=O)NCC(=O)N1CCC[C@H]1C(=O)N[C@@H](CO)C(=O)N[C@@H](CO)C(=O)NCC(=O)N[C@@H](C)C(=O)N1CCC[C@H]1C(=O)N1CCC[C@H]1C(=O)N1CCC[C@H]1C(=O)N[C@@H](CO)C(N)=O)[C@@H](C)CC)[C@@H](C)CC
- hGLP1R cAMP EC50 ratio (human GLP-1 receptor): 0.0671
- hGLP1R cAMP Rel EC50 (human GLP-1 receptor): 0.999 nM
- hGIPR cAMP EC50 ratio (human GIP receptor): 0.536
- hGIPR cAMP Rel EC50 (human GIP receptor): 0.32 nM

B5: Example 27 (peptide)
peptide: Y[Aib]EGTFTSDYSILK([AEEA-AEEA-γGlu-C20 diacid])DKIAQ[Aib]AFIEYLIEGGPSSGAPPPS-NH2
modifications: N-terminus assumed
SMILES: CC[C@H](C)[C@H](NC(=O)[C@H](CCCCN)NC(=O)[C@H](CC(=O)O)NC(=O)[C@H](CCCCNC(=O)COCCOCCNC(=O)COCCOCCNC(=O)CC[C@H](NC(=O)CCCCCCCCCCCCCCCCCCC(=O)O)C(=O)O)NC(=O)[C@H](CC(C)C)NC(=O)[C@@H](NC(=O)[C@H](CO)NC(=O)[C@H](Cc1ccc(O)cc1)NC(=O)[C@H](CC(=O)O)NC(=O)[C@H](CO)NC(=O)[C@@H](NC(=O)[C@H](Cc1ccccc1)NC(=O)[C@@H](NC(=O)CNC(=O)[C@H](CCC(=O)O)NC(=O)C(C)(C)NC(=O)[C@@H](N)Cc1ccc(O)cc1)[C@@H](C)O)[C@@H](C)O)[C@@H](C)CC)C(=O)N[C@@H](C)C(=O)N[C@@H](CCC(N)=O)C(=O)NC(C)(C)C(=O)N[C@@H](C)C(=O)N[C@@H](Cc1ccccc1)C(=O)N[C@H](C(=O)N[C@@H](CCC(=O)O)C(=O)N[C@@H](Cc1ccc(O)cc1)C(=O)N[C@@H](CC(C)C)C(=O)N[C@H](C(=O)N[C@@H](CCC(=O)O)C(=O)NCC(=O)NCC(=O)N1CCC[C@H]1C(=O)N[C@@H](CO)C(=O)N[C@@H](CO)C(=O)NCC(=O)N[C@@H](C)C(=O)N1CCC[C@H]1C(=O)N1CCC[C@H]1C(=O)N1CCC[C@H]1C(=O)N[C@@H](CO)C(N)=O)[C@@H](C)CC)[C@@H](C)CC
- hGLP1R cAMP EC50 ratio (human GLP-1 receptor): 0.123
- hGLP1R cAMP Rel EC50 (human GLP-1 receptor): 0.557 nM
- hGIPR cAMP EC50 ratio (human GIP receptor): 1.9
- hGIPR cAMP Rel EC50 (human GIP receptor): 0.0789 nM

B6: Example 28 (peptide)
peptide: Y[Aib]EGTFTSDYSILLK([AEEA-AEEA-γGlu-C20 diacid])KIAQ[Aib]AFIEYLIEGGPSSGAPPPS-NH2
modifications: N-terminus assumed
SMILES: CC[C@H](C)[C@H](NC(=O)[C@H](CCCCN)NC(=O)[C@H](CCCCNC(=O)COCCOCCNC(=O)COCCOCCNC(=O)CC[C@H](NC(=O)CCCCCCCCCCCCCCCCCCC(=O)O)C(=O)O)NC(=O)[C@H](CC(C)C)NC(=O)[C@H](CC(C)C)NC(=O)[C@@H](NC(=O)[C@H](CO)NC(=O)[C@H](Cc1ccc(O)cc1)NC(=O)[C@H](CC(=O)O)NC(=O)[C@H](CO)NC(=O)[C@@H](NC(=O)[C@H](Cc1ccccc1)NC(=O)[C@@H](NC(=O)CNC(=O)[C@H](CCC(=O)O)NC(=O)C(C)(C)NC(=O)[C@@H](N)Cc1ccc(O)cc1)[C@@H](C)O)[C@@H](C)O)[C@@H](C)CC)C(=O)N[C@@H](C)C(=O)N[C@@H](CCC(N)=O)C(=O)NC(C)(C)C(=O)N[C@@H](C)C(=O)N[C@@H](Cc1ccccc1)C(=O)N[C@H](C(=O)N[C@@H](CCC(=O)O)C(=O)N[C@@H](Cc1ccc(O)cc1)C(=O)N[C@@H](CC(C)C)C(=O)N[C@H](C(=O)N[C@@H](CCC(=O)O)C(=O)NCC(=O)NCC(=O)N1CCC[C@H]1C(=O)N[C@@H](CO)C(=O)N[C@@H](CO)C(=O)NCC(=O)N[C@@H](C)C(=O)N1CCC[C@H]1C(=O)N1CCC[C@H]1C(=O)N1CCC[C@H]1C(=O)N[C@@H](CO)C(N)=O)[C@@H](C)CC)[C@@H](C)CC
- hGLP1R cAMP EC50 ratio (human GLP-1 receptor): 0.00166
- hGLP1R cAMP Rel EC50 (human GLP-1 receptor): 32.7 nM
- hGIPR cAMP EC50 ratio (human GIP receptor): 0.106
- hGIPR cAMP Rel EC50 (human GIP receptor): 1.66 nM
